# Measurements published in CN117820479A (BEILAI PHARMACEUTICAL CO LTD, dated 2024).
# Legend:
# [1] = molecular target: IL-17RA and IL-17RC co-expressed on 293F-IL-17RA-IL-17Rc-ACT1-NFκB-Luc reporter cells (UniProt Q96F46); experiment: FACS on cells overexpressing IL-17RA and IL-17RC
# [2] = molecular target: IL-17A重组蛋白 (Human IL-17A重组蛋白, C端6×His标签) (human, UniProt Q16552 24-155, limits assumed); experiment: cell-based or functional assay
# Biotin-IL-17A-His = molecular target: T1, Biotin-IL-17A-His (UniProt Q16552 24-155, biotinylated (Biotin-IL-17A-His; site not stated)); experiment: ELISA: antibody coated at 2 ug/mL, Biotin-IL-17A-His titrated from 10 ug/mL in 5-fold steps (7 points), HRP-streptavidin, OD450
# T1 construct: also called 靶蛋白; not shown: His tag
# T1 sequence (Q16552 24-155 limits assumed): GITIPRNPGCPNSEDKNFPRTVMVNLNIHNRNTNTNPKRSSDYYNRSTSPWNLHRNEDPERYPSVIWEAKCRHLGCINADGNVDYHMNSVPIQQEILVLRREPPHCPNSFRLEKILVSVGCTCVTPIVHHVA
# Chain of IL-17A重组蛋白 (Human IL-17A重组蛋白, C端6×His标签) (human, UniProt Q16552 24-155, limits assumed) (Q16552 other isoform, or with tags, fused parts or gaps limits assumed): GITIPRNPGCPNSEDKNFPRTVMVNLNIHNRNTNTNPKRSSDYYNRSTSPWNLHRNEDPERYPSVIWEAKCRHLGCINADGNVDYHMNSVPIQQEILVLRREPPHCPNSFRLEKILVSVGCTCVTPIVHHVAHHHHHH
阳性率 [1] [%],"IC50, 阻断Human IL-17A蛋白激活293F-IL-17RA-IL-17Rc-ACT1-NFκB-Luc (luciferase reporter) [2] [µg/mL]",EC50 (Biotin-IL-17A-His) [µg/mL],Molecule
> 90,–,–,"IL-17A重组蛋白 (Human IL-17A重组蛋白, C端6×His标签) (from UniProt Q16552 24-155) (ligand)"
–,0.759,2.42,串联抗体G12-1-F8 (IL-17A特异性串联抗体) (Fc fusion) EVQLVESGGGLVQPGGSLRLSCVAWGFSFSIYSVNWYRQAPGKERELVAGITKGGLKDYADSVKGRFTISRDNAKNAVYLRMNMLKPEDTAVYYCNAGRENGYWGQGTQVAVSTGGGGSGGGGSGGGGSEVQLVESGGGLVQPGGSLRLSCAASGFSIHIYAMGWYRQAPGKQRELVATITRGGVTNNADSVKGRFTISRDNAKNTAYLQMNSLKPEDTAVYYCNAGGTNGGYWGQGTQVTVSS
–,1.36,10.1,"Ixekizumab (阳性对照抗体) (antibody, human IgG4 S228P, kappa, V domains shown, Made in house from the variable regions cloned into pcDNA3.4-hIgG4 and pcDNA3.4-hIgKc vectors; also called 对照抗体Ixekizumab; 阳性抗体) VH: QVQLVQSGAEVKKPGSSVKVSCKASGYSFTDYHIHWVRQAPGQGLEWMGVINPMYGTTDYNQRFKGRVTITADESTSTAYMELSSLRSEDTAVYYCARYDYFTGTGVYWGQGTLVTVSS VL: DIVMTQTPLSLSVTPGQPASISCRSSRSLVHSRGNTYLHWYLQKPGQSPQLLIYKVSNRFIGVPDRFSGSGSGTDFTLKISRVEAEDVGVYYCSQSTHLPFTFGQGTKLEIKR"
